Source: patent US20170368168A1 (AGENUS, published 2017)
Where a chain is given by its changes, count along the chain named. Names and notes keep the numbering of the source.

B1: AM-2 (IgG1 N297A) (antibody, V domains shown)
VH: EVQLVESGGGLVQPGGSLRLSCAASGFTFRQNAWSWVRRAPGKGLEWVSAISGSGGSTYYADSVKGRFTISRDNSKNTLYLQMNSLRAEDTAVYYCAKGGDYGGNYFDYWGQGTLVTVSS
VL: EIVLTQSPATLSLSPGERATLSCRASQSVSSYLAWYQQKPGQAPRLLIYDASNRATGIPASFSGSGSGTDFTLTISRLEPEDFAVYYCQQYGSSPLTFGGGTKVEIKR
B2: AM-6 (IgG1 N297A) (antibody, V domains shown)
VH: B1 VH with R30A, Q31R
VL: B1 VL
B3: pab2188w (IgG1 N297A) (antibody, V domains shown)
VH: not shown
VL: B1 VL
B4: pab2174 (IgG1) (antibody, V domains shown)
VH: not shown
VL: EIVLTQSPATLSLSPGERATLSCRASQSVSSYLAWYQQKPGQAPRLLIYDASNRATGIPARFSGSGSGTDFTLTISRLEPEDFAVYYCQQYGSSPLTFGGGTKVEIK
B5: pab2191 (IgG1) (antibody, V domains shown)
VH: not shown
VL: B4 VL with A9G
B6: pab2177 (IgG1) (antibody, V domains shown)
VH: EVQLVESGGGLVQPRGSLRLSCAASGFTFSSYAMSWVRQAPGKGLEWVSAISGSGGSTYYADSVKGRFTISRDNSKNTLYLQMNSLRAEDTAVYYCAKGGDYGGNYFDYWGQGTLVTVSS
VL: B4 VL with A9G
B7: pab2176 (IgG1) (antibody, V domains shown)
VH: not shown
VL: B4 VL with A9G
B8: pab2173 (IgG1) (antibody, V domains shown)
VH: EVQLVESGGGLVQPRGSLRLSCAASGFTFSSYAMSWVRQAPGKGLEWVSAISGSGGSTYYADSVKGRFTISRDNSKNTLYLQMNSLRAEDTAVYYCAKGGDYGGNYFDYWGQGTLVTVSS
VL: B4 VL
B9: pab2188 (IgG1) (antibody, V domains shown)
VH: not shown
VL: B4 VL with R61S
B10: pab2180 (IgG1) (antibody, V domains shown)
VH: not shown
VL: B4 VL with A9G, N53S, A60D
B11: pab2179 (IgG1) (antibody, V domains shown)
VH: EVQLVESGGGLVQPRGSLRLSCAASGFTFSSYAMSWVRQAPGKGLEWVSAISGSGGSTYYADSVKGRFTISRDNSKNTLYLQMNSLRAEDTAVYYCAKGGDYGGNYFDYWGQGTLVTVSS
VL: B4 VL with A9G, N53S, A60D
B12: pab2184 (IgG1) (antibody, V domains shown)
VH: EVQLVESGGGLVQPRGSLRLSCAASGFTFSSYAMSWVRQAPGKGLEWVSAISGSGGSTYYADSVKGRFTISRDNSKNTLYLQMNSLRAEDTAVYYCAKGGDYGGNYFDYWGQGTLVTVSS
VL: B4 VL with A9G, D50G, N53S, L96I
B13: pab2178 (IgG1) (antibody, V domains shown)
VH: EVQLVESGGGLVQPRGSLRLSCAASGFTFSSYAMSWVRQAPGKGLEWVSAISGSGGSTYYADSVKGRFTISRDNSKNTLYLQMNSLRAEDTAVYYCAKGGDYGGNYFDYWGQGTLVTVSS
VL: B4 VL with R61S
B14: pab2182 (IgG1) (antibody, V domains shown)
VH: not shown
VL: B4 VL with A9G, D50G, N53S, L96I
B15: pab2189 (IgG1) (antibody, V domains shown)
VH: not shown
VL: B4 VL
B16: pab2183 (IgG1) (antibody, V domains shown)
VH: not shown
VL: B4 VL with D50G, N53T
B17: pab2186 (IgG1) (antibody, V domains shown)
VH: not shown
VL: B4 VL with R77S
B18: pab2192 (IgG1) (antibody, V domains shown)
VH: not shown
VL: B4 VL with A9G, D50G, N53S, L96I
B19: pab2190 (IgG1) (antibody, V domains shown)
VH: not shown
VL: B4 VL with A9G, N53S, A60D
B20: pab2175 (IgG1) (antibody, V domains shown)
VH: not shown
VL: B4 VL with R61S
B21: AM-3 (IgG1 N297A) (antibody, V domains shown)
VH: B1 VH with R30M, Q31S, N32G, A33Q, W34T
VL: B1 VL
B22: pab2191 (IgG1 variant) (antibody, V domains shown)
VH: not shown
VL: B4 VL with A9G
B23: pab2186 (IgG1 variant) (antibody, V domains shown)
VH: not shown
VL: B4 VL with R77S
B24: pab2184 (IgG1 variant) (antibody, V domains shown)
VH: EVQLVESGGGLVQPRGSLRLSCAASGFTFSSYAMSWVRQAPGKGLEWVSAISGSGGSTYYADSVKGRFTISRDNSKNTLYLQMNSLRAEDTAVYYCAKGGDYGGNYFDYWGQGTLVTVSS
VL: B4 VL with A9G, D50G, N53S, L96I
B25: pab2189 (IgG1 variant) (antibody, V domains shown)
VH: not shown
VL: B4 VL
B26: pab2192 (IgG1 variant) (antibody, V domains shown)
VH: not shown
VL: B4 VL with A9G, D50G, N53S, L96I
B27: pab2190 (IgG1 variant) (antibody, V domains shown)
VH: not shown
VL: B4 VL with A9G, N53S, A60D

What follows are binders tested against T1, recombinant mouse TIM-3 Fc (R&D Systems, #1529-TM) (mouse, UniProt Q8VIM0 20-191) (assay: Luminex suspension array, antigen coupled to beads).
T1 construct: also called rmTIM-3 Fc; not shown: Fc part
T1 sequence (looked up): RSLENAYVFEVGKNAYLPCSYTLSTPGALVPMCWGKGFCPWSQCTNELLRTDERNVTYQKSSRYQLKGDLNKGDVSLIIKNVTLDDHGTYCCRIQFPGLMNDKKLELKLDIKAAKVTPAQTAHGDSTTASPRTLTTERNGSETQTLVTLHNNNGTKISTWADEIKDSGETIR

Row | Binder | binding result
1 | B1 | no binding (tested: 10000 ng/ml to 0.1 ng/ml)
2 | B2 | no binding (tested: 10000 ng/ml to 0.1 ng/ml)
3 | B3 | no binding (tested: 10000 ng/ml to 0.1 ng/ml)

These binders were tested against T2, recombinant human TIM-1 His (R&D Systems, Cat#1750-TM) (human, UniProt Q96D42 21-295) (assay: Luminex suspension array, antigen coupled to beads).
T2 construct: also called rhTIM-1 His
T2 sequence (looked up): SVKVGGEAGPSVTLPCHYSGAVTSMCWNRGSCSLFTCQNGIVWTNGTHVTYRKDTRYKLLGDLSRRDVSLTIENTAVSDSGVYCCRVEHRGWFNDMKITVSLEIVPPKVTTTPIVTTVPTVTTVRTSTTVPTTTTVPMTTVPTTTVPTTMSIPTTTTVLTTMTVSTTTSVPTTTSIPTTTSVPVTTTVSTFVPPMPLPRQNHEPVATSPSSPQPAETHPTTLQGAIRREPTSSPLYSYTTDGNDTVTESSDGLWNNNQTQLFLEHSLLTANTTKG

Row | Binder | binding result
4 | B1 | no binding (tested: 10000 ng/ml to 0.1 ng/ml)
5 | B2 | no binding (tested: 10000 ng/ml to 0.1 ng/ml)
6 | B3 | no binding (tested: 10000 ng/ml to 0.1 ng/ml)

These binders were tested against T3, recombinant human TIM-4 His (R&D, Cat#2929-TM) (human, UniProt Q96H15 25-315) (assay: Luminex suspension array, antigen coupled to beads).
T3 construct: also called rhTIM-4 His
T3 sequence (looked up): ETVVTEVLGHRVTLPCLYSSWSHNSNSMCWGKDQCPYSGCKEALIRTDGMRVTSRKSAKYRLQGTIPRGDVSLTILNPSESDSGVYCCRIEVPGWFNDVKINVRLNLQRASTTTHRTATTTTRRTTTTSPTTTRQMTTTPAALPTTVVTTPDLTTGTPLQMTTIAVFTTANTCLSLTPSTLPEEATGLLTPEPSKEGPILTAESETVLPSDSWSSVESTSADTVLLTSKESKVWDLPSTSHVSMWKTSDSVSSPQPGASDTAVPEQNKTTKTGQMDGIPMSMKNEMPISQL

Row | Binder | binding result
7 | B1 | no binding (tested: 10000 ng/ml to 0.1 ng/ml)
8 | B2 | no binding (tested: 10000 ng/ml to 0.1 ng/ml)
9 | B3 | no binding (tested: 10000 ng/ml to 0.1 ng/ml)

What follows are binders tested against T4, recombinant human OX40 His (Sino Biological, #10481-H08H) (human, UniProt P43489 29-216) (assay: Luminex suspension array, antigen coupled to beads).
T4 construct: also called rhOX40 His
T4 sequence (looked up): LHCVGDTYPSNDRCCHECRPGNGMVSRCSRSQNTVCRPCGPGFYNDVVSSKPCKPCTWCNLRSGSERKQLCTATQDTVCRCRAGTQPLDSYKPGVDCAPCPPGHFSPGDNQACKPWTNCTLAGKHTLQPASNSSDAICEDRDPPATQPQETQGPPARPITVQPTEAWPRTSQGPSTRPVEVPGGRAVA

Row | Binder | binding result
10 | B1 | no binding (tested: 10000 ng/ml to 0.1 ng/ml)
11 | B2 | no binding (tested: 10000 ng/ml to 0.1 ng/ml)
12 | B3 | no binding (tested: 10000 ng/ml to 0.1 ng/ml)

Each binder was assayed against T5, recombinant human GITR Fc (R&D Systems, #689-GR) (human, UniProt Q9Y5U5 26-161) (assay: Luminex suspension array, antigen coupled to beads).
T5 construct: also called rhGITR Fc; not shown: Fc part
T5 sequence (looked up): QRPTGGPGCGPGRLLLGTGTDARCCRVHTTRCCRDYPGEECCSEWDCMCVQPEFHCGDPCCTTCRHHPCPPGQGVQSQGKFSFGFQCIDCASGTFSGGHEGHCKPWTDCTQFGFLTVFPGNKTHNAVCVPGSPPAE

Row | Binder | binding result
13 | B1 | no binding (tested: 10000 ng/ml to 0.1 ng/ml)
14 | B2 | no binding (tested: 10000 ng/ml to 0.1 ng/ml)
15 | B3 | no binding (tested: 10000 ng/ml to 0.1 ng/ml)

The binders below were run against T6, recombinant human DR3 Fc (R&D Systems, #943-D3) (human, UniProt Q93038 25-201) (assay: Luminex suspension array, antigen coupled to beads).
T6 construct: also called rhDR3 Fc; not shown: Fc part
T6 sequence (looked up): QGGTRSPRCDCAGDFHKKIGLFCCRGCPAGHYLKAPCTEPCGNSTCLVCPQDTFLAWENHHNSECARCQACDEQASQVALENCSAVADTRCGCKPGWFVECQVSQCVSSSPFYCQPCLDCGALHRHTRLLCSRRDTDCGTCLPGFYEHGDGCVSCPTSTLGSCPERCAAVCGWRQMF

Row | Binder | binding result
16 | B1 | no binding (tested: 10000 ng/ml to 0.1 ng/ml)
17 | B2 | no binding (tested: 10000 ng/ml to 0.1 ng/ml)
18 | B3 | no binding (tested: 10000 ng/ml to 0.1 ng/ml)

What follows are binders tested against T7, recombinant human CD137 Fc (in house produced material) (human, UniProt Q07011 24-186) (assay: Luminex suspension array, antigen coupled to beads).
T7 construct: also called rhCD137 Fc; not shown: Fc part

Row | Binder | binding result
19 | B1 | no binding (tested: 10000 ng/ml to 0.1 ng/ml)
20 | B2 | no binding (tested: 10000 ng/ml to 0.1 ng/ml)
21 | B3 | no binding (tested: 10000 ng/ml to 0.1 ng/ml)

The binders below were run against T8, human TIM-3 expressed on cells (human, UniProt Q8TDQ0 22-301) (assay: flow cytometry, 1624-5 cells expressing human TIM-3).
T8 construct: also called T cell immunoglobulin and mucin domain-3; HAVCR2
T8 sequence: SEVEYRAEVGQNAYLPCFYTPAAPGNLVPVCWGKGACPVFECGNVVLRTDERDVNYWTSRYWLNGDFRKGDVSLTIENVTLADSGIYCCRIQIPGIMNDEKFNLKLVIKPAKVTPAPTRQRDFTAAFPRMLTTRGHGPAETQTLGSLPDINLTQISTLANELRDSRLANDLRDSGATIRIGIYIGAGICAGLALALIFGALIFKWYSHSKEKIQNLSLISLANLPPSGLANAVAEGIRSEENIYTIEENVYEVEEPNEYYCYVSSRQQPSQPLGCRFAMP

Row | Binder | binding result
22 | B4 | binds
23 | B5 | binds
24 | B6 | binds
25 | B7 | binds
26 | B8 | binds
27 | B9 | binds
28 | B10 | binds
29 | B11 | binds
30 | B12 | binds
31 | B13 | binds
32 | B14 | binds
33 | B15 | binds
34 | B16 | binds
35 | B17 | binds
36 | B18 | binds
37 | B19 | binds
38 | B20 | binds

Each binder was assayed against T8, human TIM-3 expressed on cells (assay: flow cytometry, Jurkat cells ectopically expressing human TIM-3).

Row | Binder | binding result
39 | B1 | binds
40 | B21 | binds
41 | B2 | binds

Each binder was assayed against T8, human TIM-3 expressed on cells (assay: flow cytometry, anti-CD3/anti-CD28 activated primary human CD8+ T cells).

Row | Binder | binding result
42 | B22 | binds
43 | B23 | binds
44 | B24 | binds
45 | B25 | binds
46 | B26 | binds
47 | B27 | binds

Each binder was assayed against T8, human TIM-3 expressed on cells (assay: flow cytometry, Jurkat cells ectopically expressing human TIM-3; pab2188w is the weaker comparator).

Row | Binder | binding result
48 | B3 | binds
